# Positions count from the first letter of the chain named.
# B1: anti-DLL3 trispecific protein 2E01 (protein, part only; not given: anti-CD3 and anti-albumin domains, part only)
# chain, part: EVQLVESGGGLVQPGGSLTLSCVASGSTSSINAMGWYRRAPFKQGELPAGISPDGTKAYADSAKVRFTISRDNAKNSVYLQMNSLRAEDTAVYYCYYFHTVCGTSMGYWGQGTLVTVSSGGGGSGGGSGGGGSGGGSHHHHHH
# B2: anti-DLL3 trispecific protein 2E011 (protein, part only; not given: CD3 binder and albumin binder, part only)
# chain, part: EVQLVESGGGLVQPGGSLTLSCVASGSTSSINAIGWYRRAPGKQRELVAGISSDGSSVYADSVKGRFTISRDNAKNSVYLQMNSLRAEDTAVYYCYYFRRVSGSSMRYWGQGTLVTVSSGGGGSGGGSGGGGSGGGSHHHHHH
# B3: anti-DLL3 trispecific protein 1F011 (protein, part only; not given: anti-CD3 fragment and anti-albumin sdAb, part only)
# chain, part: B2 chain, part with S57K, R100T, S102K
# B4: anti-DLL3 trispecific protein 2H02 (protein, part only; not given: anti-CD3 and anti-albumin domains, part only)
# chain, part: B2 chain, part with I34M, G35A, V48A, S57K, R99H, R100T
# B5: anti-DLL3 trispecific protein 2C02 (protein, part only; not given: CD3 binder and albumin binder, part only)
# chain, part: B2 chain, part with I34V, S57K, A60V, R100T, S102Y
# B6: anti-DLL3 trispecific protein 1C05 (protein, part only; not given: CD3 binder and albumin binder, part only)
# chain, part: B2 chain, part with I34M, G35A, S57K, R100T, S105H
# B7: anti-DLL3 trispecific protein 1H012 (protein, part only; not given: anti-CD3 fragment and anti-albumin sdAb, part only)
# chain, part: B2 chain, part with I34M, S57K, A60V, R100T, R107P
# B8: anti-DLL3 trispecific protein 2H011 (protein, part only; not given: anti-CD3 fragment and anti-albumin domain, part only)
# chain, part: B2 chain, part with S30R, I34M, S57K
# B9: anti-DLL3 trispecific protein 1A011 (protein, part only; not given: anti-CD3 and anti-albumin domains, part only)
# chain, part: B2 chain, part with S57K, A60I, R100T, M106Y
# B10: anti-DLL3 trispecific protein 2E05 (protein, part only; not given: CD3 fragment and albumin sdAb, part only)
# chain, part: B2 chain, part with T28P, I34Y, S57K, A60S, R100T, R107S
# B11: anti-DLL3 trispecific protein 1D010 (protein, part only; not given: anti-CD3 and anti-albumin domains, part only)
# chain, part: B2 chain, part with I31N, I34M, G35A, S57K, A60T, R100T, V101R
# B12: anti-DLL3 trispecific protein 2A011 (protein, part only; not given: anti-CD3 and anti-albumin domains, part only)
# chain, part: B2 chain, part with S57K, A60S, R100P
# B13: anti-DLL3 trispecific protein 1C01 (protein, part only; not given: anti-CD3 and anti-albumin domains, part only)
# chain, part: B2 chain, part with I34M, S57K, A60R, R100T, R107G
# B14: anti-DLL3 trispecific protein 1C010 (protein, part only; not given: CD3 binder and albumin binder, part only)
# chain, part: B2 chain, part with S30R, I34M, I51V, S57K, R100T, R107S
# B15: anti-DLL3 trispecific protein 1A012 (protein, part only; not given: CD3 binder and albumin binder, part only)
# chain, part: B2 chain, part with I34M, G35A, S57K, A60S, R100T, S102L
# B16: anti-DLL3 trispecific protein 1B01 (protein, part only; not given: anti-CD3 fragment and anti-albumin sdAb, part only)
# chain, part: B2 chain, part with S30I, I34M, V48A, S57K, Y59I
# B17: anti-DLL3 trispecific protein 1D09 (protein, part only; not given: anti-CD3 and anti-albumin domains, part only)
# chain, part: B2 chain, part with I34M, G35A, S57K, A60T, R100T, V101I
# B18: anti-DLL3 trispecific protein 2D012 (protein, part only; not given: anti-CD3 fragment and anti-albumin sdAb, part only)
# chain, part: B2 chain, part with S27K, I34M, S57K, A60T, R100T, V101R
# B19: anti-DLL3 trispecific protein 1E011 (protein, part only; not given: anti-CD3 and anti-albumin domains, part only)
# chain, part: B2 chain, part with S27N, I34M, S57K, A60Y, R100T, S102R, M106Q
# B20: anti-DLL3 trispecific protein 1F02 (protein, part only; not given: CD3 binder and albumin binder, part only)
# chain, part: B2 chain, part with I34M, G35A, V48A, G55Q, S57K, V63A, R100T, R107S
# B21: anti-DLL3 trispecific protein 2H03 (protein, part only; not given: CD3 binder and albumin binder, part only)
# chain, part: B2 chain, part with I34M, G35A, S57K, R100Q
# B22: anti-DLL3 trispecific protein 1E09 (protein, part only; not given: CD3 fragment and albumin sdAb, part only)
# chain, part: B2 chain, part with I34M, G35A, S57K, A60T, R100T, V101R
# B23: anti-DLL3 trispecific protein 1D011 (protein, part only; not given: anti-CD3 and anti-albumin domains, part only)
# chain, part: B2 chain, part with I34M, G35A, G55N, S57K, R100T, S104H
# B24: anti-DLL3 trispecific protein 2G08 (protein, part only; not given: anti-CD3 and anti-albumin domains, part only)
# chain, part: B2 chain, part with S30Y, I34M, S57K, R100T, S104Q, R107G
# B25: anti-DLL3 trispecific protein 1E012 (protein, part only; not given: CD3 binder and albumin binder, part only)
# chain, part: B2 chain, part with I31T, I34M, S57K, A60V, R100T, R107V
# B26: anti-DLL3 trispecific protein 1A05 (protein, part only; not given: CD3 fragment and albumin sdAb, part only)
# chain, part: B2 chain, part with T28P, I34M, V48S, S57K, R100T, S102R, R107S
# B27: anti-DLL3 trispecific protein 2E010 (protein, part only; not given: anti-CD3 and anti-albumin domains, part only)
# chain, part: B2 chain, part with I34M, G35A, S57K, R99H, R100T
# B28: anti-DLL3 trispecific protein 3H011 (protein, part only; not given: CD3 fragment and albumin sdAb, part only)
# chain, part: EVQLVESGGGLVQPGGSLTLSCAASGSSVKFLSMAWYRQAPGKKRELVAGISADGSTVYIDSVKGRFTISRDNAKNSVYLQMNSLRAEDTAVYYCYAYRWPTRYTYWGQGTLVTVSSGGGGSGGGSGGGGSGGGSHHHHHH
# B29: anti-DLL3 trispecific protein 4E02 (protein, part only; not given: CD3 binder and albumin binder, part only)
# chain, part: B28 chain, part with S28Q, K30S, P101S
# B30: anti-DLL3 trispecific protein 4C01 (protein, part only; not given: anti-CD3 fragment and anti-albumin sdAb, part only)
# chain, part: B28 chain, part with K30R, P101K
# B31: anti-DLL3 trispecific protein 3C04 (protein, part only; not given: anti-CD3 and anti-albumin domains, part only)
# chain, part: B28 chain, part with S28H, K30S, S56P, V58D, P101D
# B32: anti-DLL3 trispecific protein 4D01 (protein, part only; not given: CD3 binder and albumin binder, part only)
# chain, part: B28 chain, part with K30R, P101T, Y104R
# B33: anti-DLL3 trispecific protein 3F010 (protein, part only; not given: CD3 fragment and albumin sdAb, part only)
# chain, part: B28 chain, part with G26Y, K30S, F31R, P101T, Y104N
# B34: anti-DLL3 trispecific protein 3C03 (protein, part only; not given: anti-CD3 fragment and anti-albumin sdAb, part only)
# chain, part: B28 chain, part with K30R, A53R, P101T, Y104G
# B35: anti-DLL3 trispecific protein 4G01 (protein, part only; not given: CD3 binder and albumin binder, part only)
# chain, part: B28 chain, part with K30R
# B36: anti-DLL3 trispecific protein 4B07 (protein, part only; not given: anti-CD3 fragment and anti-albumin sdAb, part only)
# chain, part: B28 chain, part with K30G, P101T
# B37: anti-DLL3 trispecific protein 4H011 (protein, part only; not given: anti-CD3 and anti-albumin domains, part only)
# chain, part: B28 chain, part with K30S, F31R, A53V, V58D, P101T, Y104L
# B38: anti-DLL3 trispecific protein 4D09 (protein, part only; not given: CD3 binder and albumin binder, part only)
# chain, part: B28 chain, part with V58D, D61L, R99E, P101T
# B39: anti-DLL3 trispecific protein 3D011 (protein, part only; not given: CD3 binder and albumin binder, part only)
# chain, part: B28 chain, part with K30S, F31R, T57R, V58D, P101T, T105K
# B40: anti-DLL3 trispecific protein 4B011 (protein, part only; not given: CD3 fragment and albumin sdAb, part only)
# chain, part: B28 chain, part with K30T, P101T, Y104G
# Molecular target: biotinylated human DLL3 protein expressed as a human IgG1 fusion protein (human) (UniProt Q9NYJ7)
# Assay: Octet BLI; biotinylated huDLL3-IgG1 fusion on streptavidin tips; single 50 nM; conditioned medium
# biotinylated human DLL3 protein expressed as a human IgG1 fusion protein (human), sequence (Q9NYJ7 other isoform, or with tags, fused parts or gaps): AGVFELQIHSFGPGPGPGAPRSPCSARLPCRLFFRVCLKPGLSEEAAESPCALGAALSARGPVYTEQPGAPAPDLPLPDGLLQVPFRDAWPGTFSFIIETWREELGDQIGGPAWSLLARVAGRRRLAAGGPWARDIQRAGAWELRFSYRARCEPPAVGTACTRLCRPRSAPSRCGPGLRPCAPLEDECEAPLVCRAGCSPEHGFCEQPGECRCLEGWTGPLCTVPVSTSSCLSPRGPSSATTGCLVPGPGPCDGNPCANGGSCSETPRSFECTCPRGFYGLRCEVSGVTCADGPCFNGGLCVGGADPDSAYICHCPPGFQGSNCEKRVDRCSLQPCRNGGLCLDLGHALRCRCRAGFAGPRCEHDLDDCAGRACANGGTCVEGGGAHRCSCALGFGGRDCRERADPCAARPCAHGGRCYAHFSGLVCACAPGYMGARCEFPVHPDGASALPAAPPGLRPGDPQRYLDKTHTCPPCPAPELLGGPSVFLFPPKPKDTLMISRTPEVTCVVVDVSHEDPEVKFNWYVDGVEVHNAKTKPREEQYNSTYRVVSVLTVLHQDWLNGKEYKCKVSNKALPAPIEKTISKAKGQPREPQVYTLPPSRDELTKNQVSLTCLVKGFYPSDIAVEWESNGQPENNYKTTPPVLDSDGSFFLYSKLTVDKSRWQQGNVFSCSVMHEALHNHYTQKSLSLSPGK
row,Kd,Binder
1,4.1 nM,B1
2,2.4 nM,B2
3,5 nM,B3
4,4.4 nM,B4
5,4.1 nM,B5
6,5.3 nM,B6
7,3.5 nM,B7
8,5 nM,B8
9,3.7 nM,B9
10,3.9 nM,B10
11,5 nM,B11
12,4 nM,B12
13,4.3 nM,B13
14,2.5 nM,B14
15,4.9 nM,B15
16,5.2 nM,B16
17,5.2 nM,B17
18,4.9 nM,B18
19,2.7 nM,B19
20,4 nM,B20

row,Kd,Binder
1,5.3 nM,B21
2,4.4 nM,B22
3,4.4 nM,B23
4,4.1 nM,B24
5,5.3 nM,B25
6,4 nM,B26
7,4 nM,B27
8,2.7 nM,B28
9,3.8 nM,B29
10,5.1 nM,B30
11,4.5 nM,B31
12,3.7 nM,B32
13,4.4 nM,B33
14,4.9 nM,B34
15,3.6 nM,B35
16,4.3 nM,B36
17,4.5 nM,B37
18,4.7 nM,B38
19,5.3 nM,B39
20,3.9 nM,B40

# Source: US20200095340A1
